In the experiment the target is HeV G envelope glycoprotein (on effector cells expressing HeV F and G, or on infectious HeV) (Hendra virus) (UniProt O89343). As to the kind of experiment: cell-based or functional assay.
Chain of HeV G envelope glycoprotein (on effector cells expressing HeV F and G, or on infectious HeV) (Hendra virus) (O89343 whole entry): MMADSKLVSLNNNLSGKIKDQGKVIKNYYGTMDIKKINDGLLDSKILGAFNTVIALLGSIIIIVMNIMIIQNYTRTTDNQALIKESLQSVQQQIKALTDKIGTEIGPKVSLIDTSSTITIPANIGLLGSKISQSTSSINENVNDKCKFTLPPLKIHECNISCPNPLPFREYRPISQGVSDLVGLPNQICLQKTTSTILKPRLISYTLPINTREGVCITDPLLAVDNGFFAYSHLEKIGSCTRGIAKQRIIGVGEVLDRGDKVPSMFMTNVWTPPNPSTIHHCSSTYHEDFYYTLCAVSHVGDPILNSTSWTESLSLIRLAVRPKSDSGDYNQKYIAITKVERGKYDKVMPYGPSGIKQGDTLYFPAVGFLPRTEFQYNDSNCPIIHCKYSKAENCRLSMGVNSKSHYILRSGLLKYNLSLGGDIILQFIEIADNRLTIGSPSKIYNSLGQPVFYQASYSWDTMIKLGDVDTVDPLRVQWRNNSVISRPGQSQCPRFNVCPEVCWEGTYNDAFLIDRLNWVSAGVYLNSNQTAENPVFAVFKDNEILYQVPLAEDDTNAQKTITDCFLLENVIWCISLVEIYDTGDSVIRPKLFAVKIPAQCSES

The substance Fab X5 yielded a syncytia per complete photograph view, control antibody (17 without antibody) (syncytia per view) of 20.

The values are drawn from US20090214428A1.
